The results in this text go back to publication PMC3652601, “Structure of a dimeric crenarchaeal Cas6 enzyme with an atypical active site for CRISPR RNA processing” (Biochemical Journal, 2013).

Series [1] concerns the molecule itself. Briefly: crystal structure; selenomethionine-labelled methylated protein; 0.05 M bicine pH 9.1, 28% PEG 3350; SAD, 2.8 Å; four monomers in the asymmetric unit; interface analysed with PDBePISA.
Series [2] deals with the molecule itself. The series can be described thus: SEC; calibrated gel filtration, HiLoad 26/600 Superdex 200, 20 mM Tris/HCl pH 7.5, 1 M NaCl; calibrated with Bio-Rad standards.

B1: selenomethionine-labelled methylated SsoCas6 (enzyme, Sulfolobus solfataricus)
chain: PLIFKIGYNVIPLQDVILPTPSSKVLKYLIQSGKLLPSLNNLITSRDKYKPIFISHLGLNQRRIFQTNGNLKTISRGSKLSSTIAFSTQVNVLPELDEGVFETIYGKFHITIESVEIVEVEKLKEEVEKHMNDNIRVRFISPTLLSSKVLLPPSLSERYKRVNAGYSTLPSVGLIVAYAYNVYCNLIGKKEVEVRAFKFGVISNALSRIIGYDLHPVTIVIGEDSKGNLRKARGVMGWIEFDIPDEKLKRRALRYLLASSYLGIGRSRGIGFGEIKLEFIKREENH
modifications: (L)-selenomethionine derivative; surface lysine residues reductively methylated
notes: Cas6 paralogue Sso1437 of Sulfolobus solfataricus; residues 43-50 and 90-93 disordered in the crystal; Same construct as m1, labelled with selenomethionine and methylated for crystallography; also called (L)-selenomethionine derivative of SsoCas6; not shown: His6, N-terminal, cleaved
With B1, the binding result in series [1] was “binds”.

B2: Sulfolobus solfataricus Cas6 (Sso1437), wild type (enzyme)
chain: PLIFKIGYNVIPLQDVILPTPSSKVLKYLIQSGKLLPSLNNLITSRDKYKPIFISHLGLNQRRIFQTNGNLKTISRGSKLSSTIAFSTQVNVLPELDEGVFETIYGKFHITIESVEIVEVEKLKEEVEKHMNDNIRVRFISPTLLSSKVLLPPSLSERYKRVNAGYSTLPSVGLIVAYAYNVYCNLIGKKEVEVRAFKFGVISNALSRIIGYDLHPVTIVIGEDSKGNLRKARGVMGWIEFDIPDEKLKRRALRYLLASSYLGIGRSRGIGFGEIKLEFIKREENH
notes: Cas6 paralogue Sso1437 of Sulfolobus solfataricus, gene amplified by PCR from genomic DNA; expected molecular mass of the monomer 33 kDa; Cloned into pET151-TOPO; also called SsoCas6; wild-type (WT) enzyme; source: E. coli C43(DE3), purified (Ni-NTA, TEV cleavage, Superdex 75 gel filtration); not shown: His6, N-terminal, cleaved
Turning to B2, the stoichiometry N (usually a count of units in the complex or per binding partner) in series [2] is 2.

B3: SsoCas6 K28H variant (enzyme, Sulfolobus solfataricus)
chain: PLIFKIGYNVIPLQDVILPTPSSKVLHYLIQSGKLLPSLNNLITSRDKYKPIFISHLGLNQRRIFQTNGNLKTISRGSKLSSTIAFSTQVNVLPELDEGVFETIYGKFHITIESVEIVEVEKLKEEVEKHMNDNIRVRFISPTLLSSKVLLPPSLSERYKRVNAGYSTLPSVGLIVAYAYNVYCNLIGKKEVEVRAFKFGVISNALSRIIGYDLHPVTIVIGEDSKGNLRKARGVMGWIEFDIPDEKLKRRALRYLLASSYLGIGRSRGIGFGEIKLEFIKREENH
notes: Cas6 paralogue Sso1437 of Sulfolobus solfataricus with K28H; Used in the calibrated gel filtration in place of the wild type; source: E. coli, purified according to the same protocol as the wild type; not shown: His6, N-terminal, cleaved
Take B3: the “stoichiometry N” value in series [2] came to 2.
